The nature of this data set: self-splicing fitness, log relative to wild type (ln ratio); higher = more splicing; Tetrahymena group I intron in knt gene, E. coli kanamycin selection, DiMSum; sequences stand for … in CUCUCU…GGAGGGAAAAGUUAUCAGGCAUGCACCUGGUAGCUAGUCUUUAAACCAAUAGAUUGCAUCGGUUUAAAAGGCAAGACCGUCAAAUUGCGGGAAAGGGGUCAACAGCCGUUCAGUACCAAGUCUCAGGGGAAACUUUGAGAUGGCCUUGCAAAGGGUAUGGUAAUAAGCUGACGGACAUGGUCCUAACCACGCAGCCAAGUCCUAAGUCAACAGAUCUUCUGUUGAUAUGGAUGCAGUUCACAGACUAAAUGUCGGUCGGGGAAGAUGUAUUCUUCUCAUAAGAUAUAGUCGGACCUCUCCUUAAUGGGAGCUAGCGGAUGAAGUGAUGCAACACUGGAGCCGCUGGGAACUAAUUUGUAUGCGAAAGUAUAUUGAUUAGUUUUGGAGUACUCGUGGUCG
The method in brief: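 The eight P1ex-region nucleotides of an intron in the knt kanamycin-resistance gene on pET-22b(+) were all randomised and the library put into E. coli BL21(DE3). Six replicate transformations were grown overnight at 37°C or 30°C on LB agar with or without 25 μg/mL kanamycin, together with 100 μg/mL carbenicillin, 50 μM IPTG and 0.2% rhamnose. Colonies were pooled and amplicon-sequenced on an Illumina HiSeq 2500. Fitness from DiMSum is the error-weighted combination of wild-type-normalised replicate fold changes, kanamycin over none.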

± gives the uncertainty stated by the source.

Turning to ACACAGCAAUAUUACGUUGC, the “self-splicing fitness (ln)” value was -3.87 ± 0.11 (30 °C) and -2.58 ± 0.12 (37 °C).

Take ACACAGCAAUAUUACGUUUG: the “self-splicing fitness (ln)” value by setting is: (30 °C) -2.67 ± 0.067; (37 °C) -1.59 ± 0.081.

For ACAGAGCAAUAUUACGAGAC, the “self-splicing fitness (ln)” value is, setting by setting: (30 °C) -3.23 ± 0.37; (37 °C) -2.67 ± 0.31.

On to ACAGAGCAAUAUUACGAGUU, for which the “self-splicing fitness (ln)” value (30 °C) was -3.3 ± 0.2 and the “self-splicing fitness (ln)” value (37 °C) is -1.8 ± 0.14.

For the sequence ACAGAGCAAUAUUACGAUAG, the “self-splicing fitness (ln)” value was -2.78 ± 0.26 (30 °C) and -3.02 ± 0.35 (37 °C).

As to ACAGAGCAAUAUUACGCAGA, the “self-splicing fitness (ln)” value (37 °C) was -2.25 ± 0.33.

Consider ACAGAGCAAUAUUACGCAGC, for which the “self-splicing fitness (ln)” value (37 °C) was -2.25 ± 0.33.

As to ACAGAGCAAUAUUACGCGAA, the “self-splicing fitness (ln)” value runs as follows: (30 °C) -3.58 ± 0.25; (37 °C) -1.21 ± 0.18.

ACAGAGCAAUAUUACGCGCA: the “self-splicing fitness (ln)” value is -3.09 ± 0.26 (30 °C) and -0.798 ± 0.18 (37 °C).

Regarding ACAGAGCAAUAUUACGCGGG, the “self-splicing fitness (ln)” value reads like this: (30 °C) -4.91 ± 0.46; (37 °C) -3.54 ± 0.37.

ACAGAGCAAUAUUACGCUGC: the “self-splicing fitness (ln)” value (30 °C) is -4.55 ± 0.46.

Regarding ACAGAGCAAUAUUACGGACA, the “self-splicing fitness (ln)” value runs as follows: (30 °C) -2.99 ± 0.3; (37 °C) -2.45 ± 0.25.

Consider ACAGAGCAAUAUUACGGAGC, for which the “self-splicing fitness (ln)” value was -4.22 ± 0.34 (30 °C) and -3.15 ± 0.25 (37 °C).

As for ACAGAGCAAUAUUACGGCAU, the “self-splicing fitness (ln)” value runs as follows: (30 °C) -3.25 ± 0.23; (37 °C) -0.707 ± 0.17.

Regarding ACAGAGCAAUAUUACGGGCG, the “self-splicing fitness (ln)” value (30 °C) is -3.27 ± 0.19 and the “self-splicing fitness (ln)” value (37 °C) is -1.25 ± 0.2.

In the case of ACAGAGCAAUAUUACGUAAA, the “self-splicing fitness (ln)” value was -3.71 ± 0.16 (30 °C) and -2.09 ± 0.13 (37 °C).

Regarding ACAGAGCAAUAUUACGUAGA, the “self-splicing fitness (ln)” value (30 °C) was -4.17 ± 0.37 and the “self-splicing fitness (ln)” value (37 °C) is -2.19 ± 0.21.

With ACAGAGCAAUAUUACGUCAA, the “self-splicing fitness (ln)” value is -2.04 ± 0.21 (30 °C) and -3.16 ± 0.3 (37 °C).

Turning to ACAGAGCAAUAUUACGUCCU, the “self-splicing fitness (ln)” value reads like this: (30 °C) -1.35 ± 0.21; (37 °C) -0.399 ± 0.2.

As for ACAGAGCAAUAUUACGUCUA, the “self-splicing fitness (ln)” value was -3.22 ± 0.33 (30 °C) and -1.73 ± 0.29 (37 °C).

For ACAGAGCAAUAUUACGUCUC, the “self-splicing fitness (ln)” value is -3.77 ± 0.19 (30 °C) and -2.4 ± 0.17 (37 °C).

Take ACAGAGCAAUAUUACGUGGG: the “self-splicing fitness (ln)” value runs as follows: (30 °C) -2.64 ± 0.12; (37 °C) -2.4 ± 0.16.

Take ACAGAGCAAUAUUACGUGUA: the “self-splicing fitness (ln)” value is -3.11 ± 0.15 (30 °C) and -2.62 ± 0.14 (37 °C).

Consider ACAGAGCAAUAUUACGUUAG, for which the “self-splicing fitness (ln)” value (30 °C) is -3.09 ± 0.16 and the “self-splicing fitness (ln)” value (37 °C) is -2.87 ± 0.2.

On to ACAUAGCAAUAUUACGAGUA, for which the “self-splicing fitness (ln)” value by setting is: (30 °C) -3.54 ± 0.43; (37 °C) -1.8 ± 0.23.

Turning to ACAUAGCAAUAUUACGAUGA, the “self-splicing fitness (ln)” value was -0.75 ± 0.072 (30 °C) and -0.575 ± 0.086 (37 °C).

Turning to ACAUAGCAAUAUUACGCAGC, for the setting “37 °C”, the “self-splicing fitness (ln)” value is -3.15 ± 0.31.

Consider ACAUAGCAAUAUUACGCAGG, for which the “self-splicing fitness (ln)” value was -2.73 ± 0.15 (30 °C) and -2.23 ± 0.17 (37 °C).

Turning to ACAUAGCAAUAUUACGCCGU, the “self-splicing fitness (ln)” value is, setting by setting: (30 °C) -2.02 ± 0.17; (37 °C) -1.23 ± 0.2.

Consider ACAUAGCAAUAUUACGCGAA, for which the “self-splicing fitness (ln)” value was -3.3 ± 0.13 (30 °C) and -1.03 ± 0.098 (37 °C).

On to ACAUAGCAAUAUUACGCGAG, for which the “self-splicing fitness (ln)” value (30 °C) is -1.01 ± 0.07 and the “self-splicing fitness (ln)” value (37 °C) was -0.654 ± 0.079.

In the case of ACAUAGCAAUAUUACGCGUA, the “self-splicing fitness (ln)” value reads like this: (30 °C) -2.19 ± 0.091; (37 °C) -0.613 ± 0.086.

Turning to ACAUAGCAAUAUUACGCUGU, the “self-splicing fitness (ln)” value (30 °C) was -3.64 ± 0.18 and the “self-splicing fitness (ln)” value (37 °C) is -2.69 ± 0.22.

In the case of ACAUAGCAAUAUUACGCUUA, the “self-splicing fitness (ln)” value was -1.76 ± 0.19 (30 °C) and -1.55 ± 0.17 (37 °C).

Consider ACAUAGCAAUAUUACGCUUU, for which the “self-splicing fitness (ln)” value runs as follows: (30 °C) -2.82 ± 0.16; (37 °C) -2.53 ± 0.32.

Regarding ACAUAGCAAUAUUACGGAAU, the “self-splicing fitness (ln)” value was -3.72 ± 0.19 (30 °C) and -2.44 ± 0.19 (37 °C).

As for ACAUAGCAAUAUUACGGACG, the “self-splicing fitness (ln)” value runs as follows: (30 °C) -1.32 ± 0.1; (37 °C) -0.653 ± 0.14.

As to ACAUAGCAAUAUUACGGAUA, the “self-splicing fitness (ln)” value runs as follows: (30 °C) -1.75 ± 0.17; (37 °C) -2.34 ± 0.21.

As to ACAUAGCAAUAUUACGGCCA, the “self-splicing fitness (ln)” value is -0.771 ± 0.12 (30 °C) and -0.572 ± 0.13 (37 °C).

The values are drawn from the supplement of paper PMC7877785.
